We go through one substance from patent US20090010961A1.

Common to all, as to experiment: cell-based or functional assay
For assay [1], the target named is E protein of wild-type DEN-1 16007 virus (dengue-1 virus, strain 16007) (UniProt P27909).
The target of assay [2] is E protein of wild-type DEN-4 1036 virus (dengue-4 virus, strain 1036) (UniProt P09866).
The target in assay [3] is E protein of wild-type DEN-3 16562 virus (dengue-3 virus, strain 16562) (UniProt P27915).

In the case of “monoclonal antibody 3H5 (specific for DEN-2 E protein)”, the Reciprocal serum dilution-plaque reduction neutralization titers (50% endpoint) (reciprocal dilution) in assay [1] was 20; in assay [2], less than 20; in assay [3] it was 40.
